PMC5263062

Experiments:
Test in all cases: purified protein
[1] = substrate: CC(C)C(=O)O; conditions: 10 mM ATP, 4 mM MnSO4, pH 7.5, 37 °C
[2] = substrate: CCCCC(=O)O; conditions: 10 mM ATP, 4 mM MnSO4, pH 7.5, 37 °C
[3] = substrate: Nc1ncnc2c1ncn2[C@@H]1O[C@H](COP(=O)(O)OP(=O)(O)OP(=O)(O)O)[C@@H](O)[C@H]1O; conditions: 200 mM butyrate, 4 mM MnSO4, pH 7.5, 37 °C, no ADP
[4] = substrate: CC(C)CC(=O)O; conditions: 10 mM ATP, 4 mM MnSO4, pH 7.5, 37 °C
[5] = substrate: CCCC(=O)O; conditions: 10 mM ATP, 4 mM MnSO4, pH 7.5, 37 °C

B1: LmBuk (Buk, butyrate kinase) (Listeria monocytogenes EGD-e) (protein)
chain: MSFDVLTINPGSTSTKLAVYQGDKVLFEETVRHTMQELADFNNVQEQFDFRWQVLRRVMDAHGYDVKKLQAVVGRGGLLRPVAGGTYMVTEKMIDDLKENKYGEHASNLGAMLAKKLADELTIPSFIVDPVVVDEMQEIARISGNAFVTRKSIFHALNHKAAGRKIAKELGKDYEKMNFVIAHLGGGISVAAHRQGKAVDVNNALDGDGPFSPERSGSLPMNDFLEACFSGKWTKRELHELIVGRGGMISYLGTNSMLEVEAKVQAGEEKAIEAFDAMAYQVSKEIGACSVVLQGKVDAIILTGGLARSELFTSKIIEQTNWITSVIIEPGEDELEALNSGVQRVLAGLEKEKEY
B1 was tested, and the Km [1] was 7.6 ± 1.3 mM, the kcat [1] was 0.395 ± 0.00667 s⁻¹ and the kcat/Km [1] was 51.7 M⁻¹ s⁻¹. For the same protein, the Km [2] was 13.1 ± 3.3 mM, the kcat [2] was 1.2 ± 0.0367 s⁻¹ and the kcat/Km [2] was 91.7 M⁻¹ s⁻¹. It also gave a K0.5 [3] of 3.18 mM, a Km [4] of 57.1 ± 9.6 mM and a kcat [4] of 0.417 s⁻¹. The kcat/Km [4] was 7.33 M⁻¹ s⁻¹, the Km [5] was 50.5 ± 5.8 mM and the kcat [5] was 0.8367 ± 0.00667 s⁻¹. It also gave a kcat/Km [5] of 16.5 M⁻¹ s⁻¹.
